The supplement of paper PMC10567573

B1: KLHL12 (parent)
chain: SMTTPRCYVGATVLRGRLYAIAGY
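Note: lentivirally expressed fusions sorted by FACS into six bins by GFP to DsRed ratio, PSI derived from sequencing read proportions per bin multiplied by bin number.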

Variants of: B1
Test: protein stability index of a GFP-peptide fusion (GPS, HEK-293T) (PSI 1-6); higher = more stable
Conditions: c terminus: a fixed tail appended
For A20F, the protein stability index was 2.38. A20G showed a protein stability index of 2.11. A20E showed a protein stability index of 1.76. A20D showed a protein stability index of 1.48. With A20K the protein stability index was 3.06. For A20C, the protein stability index was 2.26. Variant A20I has a protein stability index of 2.3. Work on A20H yielded a protein stability index of 1.18. For T12Y, the protein stability index was 4.56. T12C gave a protein stability index of 2.41. For T12L, the protein stability index was 2.77. T12M gave a protein stability index of 3.47. In the case of T12P, the protein stability index is reported as 1.94. With T12N the protein stability index was 2.87. T12E gave a protein stability index of 1.1. T12S showed a protein stability index of 1.63. T12I showed a protein stability index of 2.46. Variant T12D has a protein stability index of 1.85. In the case of T12R, the protein stability index is reported as 2.21. With T12Q the protein stability index was 1.92. T12G showed a protein stability index of 1.18. With T12A the protein stability index was 1.68. With T12K the protein stability index was 2.48. T12F showed a protein stability index of 2.4. Work on T12V yielded a protein stability index of 3.43. For A11Q, the protein stability index was 2.32. With A11D the protein stability index was 1.42. A11P gave a protein stability index of 2.17. In the case of A11H, the protein stability index is reported as 1.8. Variant A11E has a protein stability index of 1.5. Variant A11R has a protein stability index of 3.02. In the case of A11T, the protein stability index is reported as 1.49. In the case of A11M, the protein stability index is reported as 2. In the case of A11Y, the protein stability index is reported as 2.99. For A11K, the protein stability index was 2.19. With A11G the protein stability index was 1.33. In the case of A11N, the protein stability index is reported as 1.5. A11C showed a protein stability index of 2.29. For A11S, the protein stability index was 1.04. With A11F the protein stability index was 2.01. Variant G16I has a protein stability index of 3.21. For G16E, the protein stability index was 1.25. In the case of G16C, the protein stability index is reported as 2.22. G16F gave a protein stability index of 2.91. In the case of G16Y, the protein stability index is reported as 2.42. Variant G16T has a protein stability index of 2.04. With G16V the protein stability index was 3.05. With G16D the protein stability index was 1.58. With G16P the protein stability index was 2.19. In the case of G16K, the protein stability index is reported as 1.77. G16W gave a protein stability index of 1.48. For G16H, the protein stability index was 1.98. With G16N the protein stability index was 1.98. Work on G16Q yielded a protein stability index of 1.45. For G16L, the protein stability index was 2.05. G16R showed a protein stability index of 2.39. Variant G16S has a protein stability index of 2.46. Variant R15C has a protein stability index of 3.81. Work on R15Q yielded a protein stability index of 1.46. R15K gave a protein stability index of 2.57. Work on R15P yielded a protein stability index of 1.88. R15A gave a protein stability index of 2.33. With R15I the protein stability index was 2.18. R15L showed a protein stability index of 2.21. R15M showed a protein stability index of 1.59. For R15N, the protein stability index was 1.95. With R15W the protein stability index was 1.66. Variant R15G has a protein stability index of 2.98. R15Y showed a protein stability index of 3.51. For R15H, the protein stability index was 2.64. Variant R15T has a protein stability index of 2.62. R15D showed a protein stability index of 2.78. Work on R15S yielded a protein stability index of 1.63. Work on R15V yielded a protein stability index of 3.43. R15E showed a protein stability index of 2.11. Work on L14N yielded a protein stability index of 1.17. In the case of L14G, the protein stability index is reported as 1.55. Variant L14I has a protein stability index of 1.99. L14C gave a protein stability index of 2.48. L14S showed a protein stability index of 1.9. L14A showed a protein stability index of 1.79. Variant L14D has a protein stability index of 1.58. Work on L14W yielded a protein stability index of 3.9. Work on L14R yielded a protein stability index of 1.99. With L14F the protein stability index was 1.77. L14E showed a protein stability index of 1.93. For L14Y, the protein stability index was 3.61. Variant L14H has a protein stability index of 1.62. Work on L14K yielded a protein stability index of 1.93. L14Q showed a protein stability index of 2.76. Work on L14T yielded a protein stability index of 2.5. Work on L14P yielded a protein stability index of 2.01. G10Y gave a protein stability index of 2.21. For G10W, the protein stability index was 1.11. For G10T, the protein stability index was 3.52. In the case of G10S, the protein stability index is reported as 1.02. G10P showed a protein stability index of 1.91. R17C gave a protein stability index of 2.04. R17N showed a protein stability index of 2.17. R17E gave a protein stability index of 1.68. For R17V, the protein stability index was 2.35. With R17Q the protein stability index was 1.85. For R17A, the protein stability index was 1.73. In the case of R17T, the protein stability index is reported as 1.92. With R17I the protein stability index was 3.46. For R17D, the protein stability index was 1.88. R17P gave a protein stability index of 2.42. Work on R17F yielded a protein stability index of 3.17. With R17M the protein stability index was 3.27. Work on R17H yielded a protein stability index of 2.17. R17S showed a protein stability index of 3.1. Work on R17Y yielded a protein stability index of 2.26. In the case of R17G, the protein stability index is reported as 2.27. For L18V, the protein stability index was 2.08. For L18S, the protein stability index was 1.36. Variant L18R has a protein stability index of 1.9. L18T gave a protein stability index of 1.78. For L18E, the protein stability index was 1.95. L18N gave a protein stability index of 2. In the case of L18A, the protein stability index is reported as 1.49. Variant L18C has a protein stability index of 2.93. With L18G the protein stability index was 1.7. L18H showed a protein stability index of 2.1. For L18I, the protein stability index was 1.68. For L18Q, the protein stability index was 1.81. L18F gave a protein stability index of 2.67. L18Y showed a protein stability index of 2.68. L18D showed a protein stability index of 1.94. In the case of L18P, the protein stability index is reported as 1.87. Variant L18K has a protein stability index of 1.75. Work on L18M yielded a protein stability index of 1.72. For Y19S, the protein stability index was 2. In the case of Y19T, the protein stability index is reported as 2.02. In the case of Y19N, the protein stability index is reported as 2.66. Variant Y19F has a protein stability index of 2.02. In the case of Y19A, the protein stability index is reported as 1.65. Y19Q gave a protein stability index of 2.11. Variant Y19E has a protein stability index of 2.19. For Y19D, the protein stability index was 1.99. In the case of Y19W, the protein stability index is reported as 3.23. Y19P gave a protein stability index of 2.22. With Y19G the protein stability index was 2.81. Y19C showed a protein stability index of 2.91. With Y19I the protein stability index was 3.51. Y19H gave a protein stability index of 1.72. Work on Y19K yielded a protein stability index of 1.79. Y19M showed a protein stability index of 1.79. In the case of Y19R, the protein stability index is reported as 1.77. For Y19L, the protein stability index was 2.15. With V13K the protein stability index was 1.96. In the case of V13Q, the protein stability index is reported as 2.85. V13I gave a protein stability index of 1.84. V13D gave a protein stability index of 1.28. In the case of V13L, the protein stability index is reported as 3.54. Variant V13C has a protein stability index of 1.58. With V13M the protein stability index was 1.73. For V13P, the protein stability index was 1.95. V13R showed a protein stability index of 1.74. With V13F the protein stability index was 1.85. V13E showed a protein stability index of 2.69. Work on V13H yielded a protein stability index of 3.25. In the case of V13G, the protein stability index is reported as 2.24. Variant V13A has a protein stability index of 1.83. V13N showed a protein stability index of 1.81. With V13Y the protein stability index was 2.03. V13S gave a protein stability index of 1.88. In the case of V13T, the protein stability index is reported as 1.03.
